Residue numbers refer to the chain shown, from its start. One block for each binder: values may come before it.
Columns and labels:
[1] = biological target: T1, biotinylated recombinant human PSMA-human IgG1 Fc fusion protein (human, UniProt Q04609 44-750, biotinylated (sites not given)); test: flow cytometry, reporter Jurkat cells co-expressing P-CAR2 (FIGS. 6-9)
T1 construct: Staining reagent; not shown: human IgG1 Fc

[2] = biological target: T2, recombinant human CD19-mouse IgG Fc fusion protein (human; mouse, UniProt P15391 20-291, limits assumed); test: flow cytometry, NFAT-/NFkB-luciferase reporter Jurkat cells expressing P-CAR2 (FIGS. 6-9)
T2 construct: Staining reagent; not shown: mouse IgG Fc
T2 sequence (looked up): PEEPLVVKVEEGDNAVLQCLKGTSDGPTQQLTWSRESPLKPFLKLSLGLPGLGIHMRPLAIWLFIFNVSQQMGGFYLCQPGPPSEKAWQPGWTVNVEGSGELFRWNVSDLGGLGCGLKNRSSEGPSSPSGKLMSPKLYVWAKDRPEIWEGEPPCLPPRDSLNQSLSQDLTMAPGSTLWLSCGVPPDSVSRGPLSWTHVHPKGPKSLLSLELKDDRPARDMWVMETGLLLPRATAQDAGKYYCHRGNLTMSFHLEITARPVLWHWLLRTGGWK

[3] = biological target: T1, biotinylated recombinant human …; test: flow cytometry, reporter Jurkat cells co-expressing P-CAR1 (FIGS. 1-4)

T1 sequence (Q04609 44-750 limits assumed): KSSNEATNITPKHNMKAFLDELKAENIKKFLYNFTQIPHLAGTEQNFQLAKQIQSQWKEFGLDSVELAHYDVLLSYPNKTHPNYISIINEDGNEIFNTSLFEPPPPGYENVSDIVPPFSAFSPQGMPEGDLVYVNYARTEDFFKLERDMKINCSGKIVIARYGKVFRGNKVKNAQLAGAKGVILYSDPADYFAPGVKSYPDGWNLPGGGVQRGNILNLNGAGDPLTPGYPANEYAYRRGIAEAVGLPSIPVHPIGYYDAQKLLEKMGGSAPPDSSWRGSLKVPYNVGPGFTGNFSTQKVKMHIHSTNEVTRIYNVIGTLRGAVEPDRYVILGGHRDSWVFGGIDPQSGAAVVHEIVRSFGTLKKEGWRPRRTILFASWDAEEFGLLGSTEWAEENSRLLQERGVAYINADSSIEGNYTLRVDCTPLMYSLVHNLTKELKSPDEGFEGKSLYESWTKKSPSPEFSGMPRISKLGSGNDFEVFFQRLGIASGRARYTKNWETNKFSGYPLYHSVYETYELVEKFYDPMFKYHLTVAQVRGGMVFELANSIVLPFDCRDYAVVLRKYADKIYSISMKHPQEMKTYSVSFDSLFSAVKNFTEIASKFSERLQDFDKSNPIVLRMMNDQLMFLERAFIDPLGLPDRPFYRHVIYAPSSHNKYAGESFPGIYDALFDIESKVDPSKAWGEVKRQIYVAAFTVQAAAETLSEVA

B1: N-CAR CD244 (SEQ ID No 1999 with intracellular domain SEQ ID No 2002) (other)
chain: EVQLQQSGPELVKPGTSVRISCKTSGYTFTEYTIHWVKQSHGKSLEWIGNINPNNGGTTYNQKFEDKATLTVDKSSSTAYMELRSLTSEDSAVYYCAAGWNFDYWGQGTTVTVSSGGGGSGGGGSGGGGSDIVMTQSHKFMSTSVGDRVSIICKASQDVGTAVDWYQQKPGQSPKLLIYWASTRHTGVPDRFTGSGSGTDFTLTITNVQSEDLADYFCQQYNSYPLTFGAGTMLDLKRAAATERRAEVPTAHPSPSPRPAGQFQTLVVGVVGGLLGSLVLLVWVLAVIWRRKRKEKQSETSPKEFLTIYEDVKDLKTRRNHEQEQTFPGGGSTIYSMIQSQSSAPTSQEPAYTLYSLIQPSRKSGSRKRNHSPSFNSTIYEVIGKSQPKAQNPARLSRKELENFDVYS
- binding result [1]: binds

B2: N-CAR PD1-CTLA4 (SEQ ID No 1999 with intracellular domain SEQ ID No 2003) (other)
chain: EVQLQQSGPELVKPGTSVRISCKTSGYTFTEYTIHWVKQSHGKSLEWIGNINPNNGGTTYNQKFEDKATLTVDKSSSTAYMELRSLTSEDSAVYYCAAGWNFDYWGQGTTVTVSSGGGGSGGGGSGGGGSDIVMTQSHKFMSTSVGDRVSIICKASQDVGTAVDWYQQKPGQSPKLLIYWASTRHTGVPDRFTGSGSGTDFTLTITNVQSEDLADYFCQQYNSYPLTFGAGTMLDLKRAAATERRAEVPTAHPSPSPRPAGQFQTLVVGVVGGLLGSLVLLVWVLAVICSRAARGTIGARRTGQPLKEDPSAVPVFSVDYGELDFQWREKTPEPPVPCVPEQTEYATIVFPSGMGTSSPARRGSADGPRSAQPLRPEDGHCSWPLAVSLSKMLKKRSPLTTGVYVKMPPTEPECEKQFQPYFIPIN
- binding result [1]: binds

B3: P-CAR2 (SEQ ID No 2020) (other)
chain: EVKLQQSGAELVRPGSSVKISCKASGYAFSSYWMNWVKQRPGQGLEWIGQIYPGDGDTNYNGKFKGQATLTADKSSSTAYMQLSGLTSEDSAVYFCARKTISSVVDFYFDYWGQGTTVTVSSGGGGSGGGGSGGGGSDIELTQSPKFMSTSVGDRVSVTCKASQNVGTNVAWYQQKPGQSPKPLIYSATYRNSGVPDRFTGSGSGTDFTLTITNVQSKDLADYFCQQYNRYPYTSGGGTKLEIKRAAAIEVMYPPPYLDNEKSNGTIIHVKGKHLCPSPLFPGPSKPFWVLVVVGGVLACYSLLVTVAFIIFWVRSKRSRLLHSDYMNMTPRRPGPTRKHYQPYAPPRDFAAYRSRVKFSRSADAPAYQQGQNQLYNELNLGRREEYDVLDKRRGRDPEMGGKPRRKNPQEGLYNELQKDKMAEAYSEIGMKGERRRGKGHDGLYQGLSTATKDTYDALHMQALPPR
notes: Chimeric antigen receptor on the surface of transduced reporter Jurkat cells; also called positive signaling CAR with scFv from anti-CD19 antibody SJ25C1
- binding result [2]: binds

B4: N-CAR PD1-LAG3 (SEQ ID No 1999 with intracellular domain SEQ ID No 2004) (other)
chain: EVQLQQSGPELVKPGTSVRISCKTSGYTFTEYTIHWVKQSHGKSLEWIGNINPNNGGTTYNQKFEDKATLTVDKSSSTAYMELRSLTSEDSAVYYCAAGWNFDYWGQGTTVTVSSGGGGSGGGGSGGGGSDIVMTQSHKFMSTSVGDRVSIICKASQDVGTAVDWYQQKPGQSPKLLIYWASTRHTGVPDRFTGSGSGTDFTLTITNVQSEDLADYFCQQYNSYPLTFGAGTMLDLKRAAATERRAEVPTAHPSPSPRPAGQFQTLVVGVVGGLLGSLVLLVWVLAVICSRAARGTIGARRTGQPLKEDPSAVPVFSVDYGELDFQWREKTPEPPVPCVPEQTEYATIVFPSGMGTSSPARRGSADGPRSAQPLRPEDGHCSWPLHLWRRQWRPRRFSALEQGIHPPQAQSKIEELEQEPEPEPEPEPEPEPEPEPEQL
- binding result [1]: binds

B6: N-CAR PD1 (ITSM mut 1) (SEQ ID No 1999 with intracellular domain SEQ ID No 2014) (other)
chain: EVQLQQSGPELVKPGTSVRISCKTSGYTFTEYTIHWVKQSHGKSLEWIGNINPNNGGTTYNQKFEDKATLTVDKSSSTAYMELRSLTSEDSAVYYCAAGWNFDYWGQGTTVTVSSGGGGSGGGGSGGGGSDIVMTQSHKFMSTSVGDRVSIICKASQDVGTAVDWYQQKPGQSPKLLIYWASTRHTGVPDRFTGSGSGTDFTLTITNVQSEDLADYFCQQYNSYPLTFGAGTMLDLKRAAATERRAEVPTAHPSPSPRPAGQFQTLVVGVVGGLLGSLVLLVWVLAVICSRAARGTIGARRTGQPLKEDPSAVPVFSVDYGELDFQWREKTPEPPVPCVPEQTEYSEIVFPSGMGTSSPARRGSADGPRSAQPLRPEDGHCSWPL
- binding result [3]: binds

Now from value to binder:

- binding result [1]: binds
B5: N-CAR BTLA (SEQ ID No 1999 with intracellular domain SEQ ID No 2001) (other)
chain: EVQLQQSGPELVKPGTSVRISCKTSGYTFTEYTIHWVKQSHGKSLEWIGNINPNNGGTTYNQKFEDKATLTVDKSSSTAYMELRSLTSEDSAVYYCAAGWNFDYWGQGTTVTVSSGGGGSGGGGSGGGGSDIVMTQSHKFMSTSVGDRVSIICKASQDVGTAVDWYQQKPGQSPKLLIYWASTRHTGVPDRFTGSGSGTDFTLTITNVQSEDLADYFCQQYNSYPLTFGAGTMLDLKRAAATERRAEVPTAHPSPSPRPAGQFQTLVVGVVGGLLGSLVLLVWVLAVIRRHQGKQNELSDTAGREINLVDAHLKSEQTEASTRQNSQVLLSETGIYDNDPDLCFRMQEGSEVYSNPCLEENKPGIVYASLNHSVIGPNSRLARNVKEAPTEYASICVRS

- binding result [3]: binds
B7: N-CAR PD1 (ITSM mut 2) (SEQ ID No 1999 with intracellular domain SEQ ID No 2015) (other)
chain: B6 chain with I348V

- binding result [1]: binds
B8: N-CAR PD1 (SEQ ID No 1999 with intracellular domain SEQ ID No 2000) (other)
chain: B6 chain with S346A, E347T

- binding result [3]: binds
B9: N-CAR PD1 (ITSM mut3) (SEQ ID No 1999 with intracellular domain SEQ ID No 2016) (other)
chain: B6 chain with S346A, E347S

- binding result [3]: binds
B10: N-CAR PD1-KIR2DL2 (SEQ ID No 1999 with intracellular domain SEQ ID No 2017) (other)
chain: EVQLQQSGPELVKPGTSVRISCKTSGYTFTEYTIHWVKQSHGKSLEWIGNINPNNGGTTYNQKFEDKATLTVDKSSSTAYMELRSLTSEDSAVYYCAAGWNFDYWGQGTTVTVSSGGGGSGGGGSGGGGSDIVMTQSHKFMSTSVGDRVSIICKASQDVGTAVDWYQQKPGQSPKLLIYWASTRHTGVPDRFTGSGSGTDFTLTITNVQSEDLADYFCQQYNSYPLTFGAGTMLDLKRAAATERRAEVPTAHPSPSPRPAGQFQTLVVGVVGGLLGSLVLLVWVLAVICSRAARGTIGARRTGQPLKEDPSAVPVFSVDYGELDFQWREKTPEPPVPCVPEQTEYATIVFPSGMGTSSPARRGSADGPRSAQPLRPEDGHCSWPLHRWCSNKKNAAVMDQESAGNRTANSEDSDEQDPQEVTYTQLNHCVFTQRKITRPSQRPKTPPTDIIVYAELPNAESRSKVVSCP

Source: patent US20220033462A1 (ALLOGENE THERAPEUTICS, published 2022)
